The target of assay [1] is dynamic microtubules grown from purified bovine brain tubulin (bovine) (UniProt Q6B856). Nature of the assay: optical trap rupture force assay.
Assay [2] shares this target. Briefly: optical trap force clamp assay.

The values that follow come from paper PMC8972186.

“wild-type Ndc80 complex (from UniProt P40460 1-691; P33895 1-451; Q04477 1-213; P40014 1-221)” showed a median rupture strength in assay [1] of 3.2 pN. Moreover, the percent of beads tracking with shortening microtubule tips under 1.5 pN in assay [2] was 7%.
